# Laboratory results as given in patent US20130130273A1 (KOREA BASIC SCIENCE INSTITUTE, published 2013).
# Target: TMD-mRFP-RelA (UniProt Q04206 1-551)
# Assay: co-translocation of a three-protein complex (RelA, IkB, p50) after 1 µM PMA, confocal microscopy, HEK293 cells
# Sequence of TMD-mRFP-RelA (Q04206 other isoform, or with tags, fused parts or gaps limits assumed): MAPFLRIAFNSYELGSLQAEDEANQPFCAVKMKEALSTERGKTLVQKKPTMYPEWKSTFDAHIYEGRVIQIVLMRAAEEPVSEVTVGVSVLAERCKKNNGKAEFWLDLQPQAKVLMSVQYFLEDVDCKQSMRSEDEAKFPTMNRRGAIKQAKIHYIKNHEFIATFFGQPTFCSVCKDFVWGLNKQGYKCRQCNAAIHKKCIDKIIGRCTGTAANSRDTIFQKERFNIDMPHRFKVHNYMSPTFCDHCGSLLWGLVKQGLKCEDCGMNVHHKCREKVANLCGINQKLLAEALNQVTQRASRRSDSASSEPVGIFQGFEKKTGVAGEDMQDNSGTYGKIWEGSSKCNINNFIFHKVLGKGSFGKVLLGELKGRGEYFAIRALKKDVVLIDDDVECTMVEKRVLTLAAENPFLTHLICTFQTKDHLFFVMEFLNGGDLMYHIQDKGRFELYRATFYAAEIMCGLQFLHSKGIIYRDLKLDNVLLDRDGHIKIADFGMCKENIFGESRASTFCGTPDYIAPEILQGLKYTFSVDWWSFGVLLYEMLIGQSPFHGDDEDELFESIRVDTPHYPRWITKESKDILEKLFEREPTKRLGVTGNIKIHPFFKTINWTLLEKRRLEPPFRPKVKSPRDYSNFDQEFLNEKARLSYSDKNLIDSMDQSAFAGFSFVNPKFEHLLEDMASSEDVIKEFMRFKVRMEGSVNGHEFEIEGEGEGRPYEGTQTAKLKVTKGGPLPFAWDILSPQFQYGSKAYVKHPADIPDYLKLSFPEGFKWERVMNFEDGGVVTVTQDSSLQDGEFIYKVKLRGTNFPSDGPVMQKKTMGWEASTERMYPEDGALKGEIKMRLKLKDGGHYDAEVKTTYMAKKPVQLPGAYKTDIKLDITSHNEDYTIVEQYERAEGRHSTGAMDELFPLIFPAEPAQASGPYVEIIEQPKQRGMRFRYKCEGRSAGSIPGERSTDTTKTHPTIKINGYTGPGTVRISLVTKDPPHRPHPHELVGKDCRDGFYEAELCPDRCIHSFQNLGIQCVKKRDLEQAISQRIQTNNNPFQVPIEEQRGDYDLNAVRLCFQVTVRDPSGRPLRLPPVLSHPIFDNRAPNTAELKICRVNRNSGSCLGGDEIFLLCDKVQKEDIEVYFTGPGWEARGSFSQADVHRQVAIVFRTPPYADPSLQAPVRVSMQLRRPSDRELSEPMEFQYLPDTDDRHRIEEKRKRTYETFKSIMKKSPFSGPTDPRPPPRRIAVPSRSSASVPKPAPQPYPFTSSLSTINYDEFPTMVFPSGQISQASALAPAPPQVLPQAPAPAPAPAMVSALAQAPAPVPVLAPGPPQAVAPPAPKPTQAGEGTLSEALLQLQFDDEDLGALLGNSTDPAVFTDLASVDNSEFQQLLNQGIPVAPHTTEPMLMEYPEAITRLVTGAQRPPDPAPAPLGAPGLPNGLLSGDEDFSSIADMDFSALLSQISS
binder,measurement,value
"HcR-p50 (other, also called second construct 2) MVSGLLKESMRIKMYMEGTVNGHYFKCEGEGDGNPFAGTQSMRIHVTEGAPLPFAFDILAPCCEYGSRTFVHHTAEIPDFFKQSFPEGFTWERTTTYEDGGILTAHQDTSLEGNCLIYKVKVHGTNFPADGPVMKNKSGGWEPSTEVVYPENGVLCGRNVMALKVGDRHLICHHYTSYRSKKAVRALTMPGFHFTDIRLQMLRKKKDEYFELYEASVARYSDLPEKANMAEDDPYLGRPEQMFHLDPSLTHTIFNPEVFQPQMALPTDGPYLQILEQPKQRGFRFRYVCEGPSHGGLPGASSEKNKKSYPQVKICNYVGPAKVIVQLVTNGKNIHLHAHSLVGKHCEDGICTVTAGPKDMVVGFANLGILHVTKKKVFETLEARMTEACIRGYNPGLLVHPDLAYLQAEGGGDRQLGDREKELIRQAALQQTKEMDLSVVRLMFTAFLPDSTGSFTRRLEPVVSDAIYDSKAPNASNLKIVRMDRTAGCVTGGEEIYLLCDKVQKDDIQIRFYEEEENGGVWEGFGDFSPTDVHRQFAIVFKTPKYKDINITKPASVFVQLRRKSDLETSEPKPFLYYPEIKDKEEVQRKRQKLMPNFSDSFGGGSGAGAGGGGMFGSGGGGGGTGSTGPGYSFPHYGFPTYGGITFHPGTTKSNAGMKHG",binding result,binds
